{"source": "patent US20140161821A1", "about": "“TREATMENT WITH ANTI-PCSK9 ANTIBODIES” (PFIZER INC., priority 2011, published 2014)", "molecules": {"B1": {"name": "L1L3: humanized (<5% murine residues) monoclonal PCSK9 antagonist antibody that binds to secreted PCSK9; VH SEQ ID NO: 11, VL SEQ ID NO: 12 (antibody, V domains shown)", "VH": "QVQLVQSGAEVKKPGASVKVSCKASGYTFTSYYMHWVRQAPGQGLEWMGEISPFGGRTNYNEKFKSRVTMTRDTSTSTVYMELSSLRSEDTAVYYCARERPLYASDLWGQGTTVTVSS", "VL": "DIQMTQSPSSLSASVGDRVTITCRASQGISSALAWYQQKPGKAPKLLIYSASYRYTGVPSRFSGSGSGTDFTFTISSLQPEDIATYYCQQRYSLWRTFGQGTKLEIK", "modifications": "heavy chain variable region; light chain variable region"}}, "target": "T1, PCSK9 (Homo sapiens, UniProt Q8NBP7)", "T1 construct": "PCSK9 antagonist antibody that antagonizes circulating PCSK9; endogenous in cells; host or cells: human subjects in clinical trials (in vivo, circulating PCSK9)", "T1 sequence (Q8NBP7 153-692)": "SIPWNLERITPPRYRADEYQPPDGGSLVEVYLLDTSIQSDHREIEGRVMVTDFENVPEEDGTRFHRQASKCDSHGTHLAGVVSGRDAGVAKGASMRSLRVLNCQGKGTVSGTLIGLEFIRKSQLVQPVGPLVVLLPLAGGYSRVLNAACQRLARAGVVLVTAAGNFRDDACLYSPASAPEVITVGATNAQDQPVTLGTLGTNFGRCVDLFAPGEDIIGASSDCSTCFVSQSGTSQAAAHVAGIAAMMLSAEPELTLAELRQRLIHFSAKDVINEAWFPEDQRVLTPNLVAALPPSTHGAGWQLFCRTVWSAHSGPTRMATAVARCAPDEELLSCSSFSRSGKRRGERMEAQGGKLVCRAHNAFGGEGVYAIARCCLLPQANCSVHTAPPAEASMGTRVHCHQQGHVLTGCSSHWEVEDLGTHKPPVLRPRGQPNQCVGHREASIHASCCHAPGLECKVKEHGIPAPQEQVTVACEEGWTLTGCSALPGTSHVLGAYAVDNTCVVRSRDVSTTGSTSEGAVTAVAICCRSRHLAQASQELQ", "T1 sequence (Q8NBP7 31-152 partner limits assumed)": "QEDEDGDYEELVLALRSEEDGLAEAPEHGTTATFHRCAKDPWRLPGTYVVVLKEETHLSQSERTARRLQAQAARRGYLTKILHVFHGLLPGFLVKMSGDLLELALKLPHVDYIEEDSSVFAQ", "assay": "Example 2 clinical study, single escalating IV doses: fasting lipids", "type": "in vivo", "description": "The study entailed a randomized, placebo-controlled, ascending, single dose study of L1L3. The subjects, investigator, and site personnel (except site personnel responsible for drug preparation) were blinded to treatment assignments, as was the CRO designee; while the Sponsor clinical research team was unblinded. The study was conducted in 6 planned cohorts of 8 subjects per cohort in an effort to seek a maximum tolerated dose or MTD (total of approximately 48 subjects). […] Doses were administered following an overnight fast as an intravenous infusion over 60 minutes. […] Infusions will be administered as a single infusion over 60 minutes.\nChange in serum lipids (total cholesterol, LDL, HDL, Triglycerides, Non-HDL-C and Apoprotein B) were assessed.\nCollection of fasting lipid profile was performed after at least a 10-hour fast (total cholesterol, LDL, HDL, Non-HDL Cholesterol, Apo B and triglycerides).", "data": [{"molecule": "B1", "values": [{"measurement": "Fasting apolipoprotein B (apo B), % below baseline", "setting": "0.3 mg/kg, by day 7", "value": "about 25%"}, {"measurement": "Fasting apolipoprotein B (apo B), % below baseline", "setting": "1 mg/kg, by day 14", "value": "about 40%"}, {"measurement": "Fasting apolipoprotein B (apo B), % below baseline", "setting": "3 mg/kg, by day 14", "value": "about 40%"}, {"measurement": "Fasting apolipoprotein B (apo B), % below baseline", "setting": "3 mg/kg, by day 28", "value": "about 50%"}, {"measurement": "Fasting LDL-C levels", "setting": "6 mg/kg or 12 mg/kg, by day 14 post-dosing", "value": "about 55 mg/dL"}, {"measurement": "Fasting apolipoprotein B (apo B), % below baseline", "setting": "6 mg/kg, by day 14", "value": "about 40%"}, {"measurement": "Fasting apolipoprotein B (apo B), % below baseline", "setting": "6 mg/kg, by day 21", "value": "about 50%"}, {"measurement": "Fasting apolipoprotein B (apo B), % below baseline", "setting": "6 mg/kg, generally, remainder of the study", "value": "> 30", "unit": "%"}, {"measurement": "LDL-C percentage change from baseline (lowering)", "setting": "18 mg/kg, FIG. 2", "value": "up to 83%"}, {"measurement": "Fasting LDL-C levels", "setting": "18 mg/kg, by day 14 post-dosing", "value": "about 20 mg/dL"}, {"measurement": "Fasting LDL-C levels", "setting": "1, 3, 6, 12, or 18 mg/kg, by day 14 post-dosing", "value": "≤ 70", "unit": "mg/dL"}, {"measurement": "Fasting apolipoprotein B (apo B), % below baseline", "setting": "12 or 18 mg/kg, by day 14, baseline about 119 mg/dL", "value": "about 50%"}, {"measurement": "Fasting apolipoprotein B (apo B), % below baseline", "setting": "12 or 18 mg/kg, remainder of the study after day 14", "value": "≥ 50", "unit": "%"}, {"measurement": "Earliest day LDL-C lowering effects were seen", "setting": "all dosage groups", "value": 3, "unit": "days"}, {"measurement": "Day of maximum percentage LDL-C lowering", "setting": "in general, all dosage groups", "value": "Day 15 or Day 22"}, {"measurement": "Duration of maximum LDL-C lowering effect", "setting": "single 0.3 mg/kg", "value": 7, "unit": "days"}, {"measurement": "Fasting total cholesterol (TC), % reduced", "setting": "single 0.3 mg/kg, by about day 9", "value": "about 25%"}, {"measurement": "Fasting LDL-C levels", "setting": "single 0.3 mg/kg, day 7 post-dosing", "value": "about 85 mg/dL"}, {"measurement": "Fasting LDL-C levels", "setting": "single 0.3 mg/kg, until about 10 days post-dosing", "value": "below 100 mg/dL"}, {"measurement": "Duration of maximum LDL-C lowering effect", "setting": "single 1.0 mg/kg", "value": 14, "unit": "days"}, {"measurement": "Fasting total cholesterol (TC), % below baseline", "setting": "single 1 mg/kg, by about day 15", "value": "about 36%"}, {"measurement": "Fasting LDL-C levels", "setting": "single 1 mg/kg, day 14 post-dosing", "value": "about 65 mg/dL"}, {"measurement": "Fasting LDL-C levels", "setting": "single 1 mg/kg, until about 21 days post-dosing", "value": "below 100 mg/dL"}, {"measurement": "Duration of maximum LDL-C lowering effect", "setting": "single 3.0 mg/kg", "value": "up to 4 weeks"}, {"measurement": "Fasting total cholesterol (TC), % below baseline", "setting": "single 3 mg/kg, by about day 9", "value": "about 30%"}, {"measurement": "Fasting total cholesterol (TC), % below baseline", "setting": "single 3 mg/kg, by about day 22", "value": "about 40%"}, {"measurement": "Fasting LDL-C levels", "setting": "single 3 mg/kg, day 14 post-dosing", "value": "about 70 mg/dL"}, {"measurement": "Fasting LDL-C levels", "setting": "single 3 mg/kg, day 21 post-dosing", "value": "about 60 mg/dL"}, {"measurement": "LDL-C levels, % below baseline", "setting": "single 3 mg/kg, maintained up to 29 days post administration", "value": "> 60", "unit": "%"}, {"measurement": "LDL-C levels, % below baseline", "setting": "single 3 mg/kg, maintained up to 50 days post administration", "value": "> 20", "unit": "%"}, {"measurement": "Fasting LDL-C levels", "setting": "single 3 mg/kg, until about 36 days post-dosing", "value": "below 100 mg/dL"}, {"measurement": "LDL-C levels, % below baseline", "setting": "single 6 mg/kg or 12 mg/kg, maintained up to 43 days post administration", "value": "> 60", "unit": "%"}, {"measurement": "Duration of maximum LDL-C lowering effect", "setting": "single 6 mg/kg, 12 mg/kg, and 18 mg/kg", "value": "more than 6 weeks"}, {"measurement": "Fasting total cholesterol (TC), % below baseline", "setting": "single 6 mg/kg, by about day 9 until about day 52 post-dosing", "value": "≥ 30", "unit": "%"}, {"measurement": "Fasting total cholesterol (TC), % below baseline, in a number of subjects", "setting": "single 6 mg/kg, by day 30 post-dosing", "value": "> 50", "unit": "%"}, {"measurement": "Fasting LDL-C levels", "setting": "single 6 mg/kg, for about 42 days post-dosing", "value": "below 50 mg/dL"}, {"measurement": "Fasting LDL-C levels", "setting": "single 6 mg/kg, until at least about 57 days post-dosing", "value": "below 100 mg/dL"}, {"measurement": "Fasting LDL-C levels", "setting": "single 12 mg/kg, until at least about 57 days post-dosing (end of study)", "value": "≤ 60", "unit": "mg/dL"}, {"measurement": "LDL-C levels, % below baseline", "setting": "single 18 mg/kg, maintained at least up to 57 days post administration", "value": "> 65", "unit": "%"}, {"measurement": "Fasting LDL-C levels", "setting": "single 18 mg/kg, until at least about 57 days post-dosing", "value": "below 50 mg/dL"}, {"measurement": "Fasting total cholesterol (TC), % below baseline", "setting": "single 12 or 18 mg/kg, by about day 9, lasting at least to day 57, baseline about 230 mg/dL", "value": "≥ 30", "unit": "%"}, {"measurement": "Fasting total cholesterol (TC), % below baseline, in a number of subjects", "setting": "single 12 or 18 mg/kg, by day 15 post-dosing", "value": "> 50", "unit": "%"}, {"measurement": "mean percentage change from baseline of fasting LDL-C", "setting": "single IV 0.3 mg/kg, visit day 1", "value": 0.000, "unit": "%"}, {"measurement": "mean percentage change from baseline of fasting LDL-C", "setting": "single IV 0.3 mg/kg, visit day 2", "value": "−15.8", "unit": "%"}, {"measurement": "mean percentage change from baseline of fasting LDL-C", "setting": "single IV 0.3 mg/kg, visit day 3", "value": "−14.13", "unit": "%"}, {"measurement": "mean percentage change from baseline of fasting LDL-C", "setting": "single IV 0.3 mg/kg, visit day 4", "value": "−30.14", "unit": "%"}, {"measurement": "mean percentage change from baseline of fasting LDL-C", "setting": "single IV 0.3 mg/kg, visit day 8", "value": "−42.86", "unit": "%"}, {"measurement": "mean percentage change from baseline of fasting LDL-C", "setting": "single IV 0.3 mg/kg, visit day 15", "value": "−23.68", "unit": "%"}, {"measurement": "mean percentage change from baseline of fasting LDL-C", "setting": "single IV 0.3 mg/kg, visit day 22", "value": "−11.36", "unit": "%"}, {"measurement": "mean percentage change from baseline of fasting LDL-C", "setting": "single IV 0.3 mg/kg, visit day 29", "value": "−9.12", "unit": "%"}, {"measurement": "mean percentage change from baseline of fasting LDL-C", "setting": "single IV 1 mg/kg, visit day 1", "value": 0.000, "unit": "%"}, {"measurement": "mean percentage change from baseline of fasting LDL-C", "setting": "single IV 1 mg/kg, visit day 2", "value": "−0.33", "unit": "%"}, {"measurement": "mean percentage change from baseline of fasting LDL-C", "setting": "single IV 1 mg/kg, visit day 3", "value": "−9.79", "unit": "%"}, {"measurement": "mean percentage change from baseline of fasting LDL-C", "setting": "single IV 1 mg/kg, visit day 4", "value": "−19.14", "unit": "%"}, {"measurement": "mean percentage change from baseline of fasting LDL-C", "setting": "single IV 1 mg/kg, visit day 8", "value": "−33.33", "unit": "%"}, {"measurement": "mean percentage change from baseline of fasting LDL-C", "setting": "single IV 1 mg/kg, visit day 15", "value": "−50.50", "unit": "%"}]}]}
